This note sets out measurements from patent publication US20230190900 (published 2023).

One experiment deals with T1, murine FcγRI (mouse, UniProt P26151).
T1 chain: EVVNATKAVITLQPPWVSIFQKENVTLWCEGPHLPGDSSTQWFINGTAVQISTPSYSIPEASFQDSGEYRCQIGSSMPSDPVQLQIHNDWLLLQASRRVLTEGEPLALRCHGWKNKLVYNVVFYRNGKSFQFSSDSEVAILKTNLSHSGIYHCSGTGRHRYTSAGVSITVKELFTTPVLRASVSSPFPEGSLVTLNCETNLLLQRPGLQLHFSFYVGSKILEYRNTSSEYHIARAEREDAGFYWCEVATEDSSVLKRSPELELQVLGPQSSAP
The experiment in a line: SPR.

The target in the next experiment is T2, human FcγRIIa (CD32A) (human, UniProt P12318).
T2 chain: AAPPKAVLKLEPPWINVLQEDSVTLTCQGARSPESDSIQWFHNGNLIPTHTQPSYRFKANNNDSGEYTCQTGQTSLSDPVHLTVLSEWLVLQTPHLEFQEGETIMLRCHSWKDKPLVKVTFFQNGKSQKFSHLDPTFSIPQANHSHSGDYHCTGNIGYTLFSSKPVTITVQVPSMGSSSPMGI
The experiment in a line: SPR.

In the next experiment the target is T3, human FcγRIIb (CD32B) (human, UniProt P31994).
T3 chain: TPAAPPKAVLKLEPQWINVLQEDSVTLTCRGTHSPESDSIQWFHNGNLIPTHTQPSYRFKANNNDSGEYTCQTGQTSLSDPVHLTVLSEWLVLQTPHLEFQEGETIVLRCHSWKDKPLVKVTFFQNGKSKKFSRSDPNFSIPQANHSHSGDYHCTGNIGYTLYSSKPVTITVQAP
The experiment in a line: SPR.

The target of a further experiment is T4, murine FcγRIV (CD16-2) (mouse, UniProt A0A0B4J1G0).
T4 chain: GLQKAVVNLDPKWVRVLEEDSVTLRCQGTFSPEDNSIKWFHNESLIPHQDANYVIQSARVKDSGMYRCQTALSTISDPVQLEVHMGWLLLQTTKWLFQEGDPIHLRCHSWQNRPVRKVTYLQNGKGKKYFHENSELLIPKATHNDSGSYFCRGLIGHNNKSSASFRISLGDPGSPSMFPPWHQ
Put plainly: SPR.

The next experiment concerns the target human FcRn (human, UniProt P55899). Put plainly: SPR, pH 6.0.
A further experiment addresses T5, human FcγRI (CD64) (human, UniProt P12314).
T5 chain: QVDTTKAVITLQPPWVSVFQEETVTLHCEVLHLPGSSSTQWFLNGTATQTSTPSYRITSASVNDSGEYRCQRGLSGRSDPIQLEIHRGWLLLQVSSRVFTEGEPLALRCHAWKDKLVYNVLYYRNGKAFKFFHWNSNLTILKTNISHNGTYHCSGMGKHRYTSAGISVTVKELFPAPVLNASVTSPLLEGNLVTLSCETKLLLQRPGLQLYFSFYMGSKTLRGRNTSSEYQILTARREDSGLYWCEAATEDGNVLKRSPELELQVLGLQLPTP
The experiment in a line: SPR.

The target in a further experiment is T6, human FcγRIIc (CD32C) (human, UniProt P31995).
T6 chain: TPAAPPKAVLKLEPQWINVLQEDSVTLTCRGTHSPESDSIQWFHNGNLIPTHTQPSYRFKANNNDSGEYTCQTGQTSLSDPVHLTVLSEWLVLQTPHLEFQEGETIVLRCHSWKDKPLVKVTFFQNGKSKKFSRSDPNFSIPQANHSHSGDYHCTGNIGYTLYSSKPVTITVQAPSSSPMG
The experiment in a line: SPR.

For the next experiment, the target named is T7, murine FcγRIIb (mouse, UniProt P08101).
T7 chain: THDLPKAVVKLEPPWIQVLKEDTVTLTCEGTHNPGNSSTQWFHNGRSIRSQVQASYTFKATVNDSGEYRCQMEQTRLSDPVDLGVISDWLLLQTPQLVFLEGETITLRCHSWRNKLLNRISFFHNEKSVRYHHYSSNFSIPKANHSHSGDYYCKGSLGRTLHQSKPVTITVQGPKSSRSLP
Put plainly: SPR.

For experiment [1], the target named is T8, human FcγRIIIb (NA1) CD16B (human, UniProt O75015).
T8 chain: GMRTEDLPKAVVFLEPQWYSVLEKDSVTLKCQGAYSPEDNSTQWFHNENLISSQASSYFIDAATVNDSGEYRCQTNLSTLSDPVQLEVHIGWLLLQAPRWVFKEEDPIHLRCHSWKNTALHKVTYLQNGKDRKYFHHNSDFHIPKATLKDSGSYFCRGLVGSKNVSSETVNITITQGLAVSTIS
Put plainly: SPR.

Another experiment concerns the target T9, cynomolgus FcRn (cynomolgus, UniProt Q8SPV9).
T9 chain 1: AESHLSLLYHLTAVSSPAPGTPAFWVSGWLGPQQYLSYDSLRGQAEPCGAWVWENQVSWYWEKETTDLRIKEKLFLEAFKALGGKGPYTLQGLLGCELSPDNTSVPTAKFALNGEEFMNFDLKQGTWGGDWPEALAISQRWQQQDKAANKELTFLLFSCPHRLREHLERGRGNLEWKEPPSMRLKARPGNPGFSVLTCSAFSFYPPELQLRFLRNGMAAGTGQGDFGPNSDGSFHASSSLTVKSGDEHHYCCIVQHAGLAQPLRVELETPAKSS
T9 chain 2: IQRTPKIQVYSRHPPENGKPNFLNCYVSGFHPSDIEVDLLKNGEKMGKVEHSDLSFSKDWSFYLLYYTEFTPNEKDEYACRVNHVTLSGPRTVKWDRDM
The experiment in a line: SPR, pH 6.0.

Experiment [2] has as its target T10, cynomolgus FcγRIIa (CD32A) (cynomolgus).
T10 chain: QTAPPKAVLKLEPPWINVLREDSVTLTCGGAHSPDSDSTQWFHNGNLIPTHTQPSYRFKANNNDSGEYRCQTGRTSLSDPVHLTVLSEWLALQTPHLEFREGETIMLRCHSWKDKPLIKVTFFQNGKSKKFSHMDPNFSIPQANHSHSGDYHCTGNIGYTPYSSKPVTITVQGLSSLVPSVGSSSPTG
Put plainly: SPR.

Another experiment deals with T11, murine FcRn (mouse, UniProt Q61559).
T11 chain 1: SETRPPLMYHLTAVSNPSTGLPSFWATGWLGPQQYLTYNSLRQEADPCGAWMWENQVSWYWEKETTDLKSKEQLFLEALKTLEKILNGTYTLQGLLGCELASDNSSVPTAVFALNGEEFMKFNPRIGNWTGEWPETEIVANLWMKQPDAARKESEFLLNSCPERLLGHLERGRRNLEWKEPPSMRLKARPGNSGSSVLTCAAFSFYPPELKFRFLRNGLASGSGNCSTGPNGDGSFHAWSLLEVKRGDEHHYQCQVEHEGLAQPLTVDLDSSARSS
T11 chain 2: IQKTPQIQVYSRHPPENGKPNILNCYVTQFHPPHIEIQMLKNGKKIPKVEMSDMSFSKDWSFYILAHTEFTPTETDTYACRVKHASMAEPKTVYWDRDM
The experiment in a line: SPR, pH 6.0.

The target of the next experiment is T12, murine FcγRIII (mouse, UniProt P08508).
T12 chain: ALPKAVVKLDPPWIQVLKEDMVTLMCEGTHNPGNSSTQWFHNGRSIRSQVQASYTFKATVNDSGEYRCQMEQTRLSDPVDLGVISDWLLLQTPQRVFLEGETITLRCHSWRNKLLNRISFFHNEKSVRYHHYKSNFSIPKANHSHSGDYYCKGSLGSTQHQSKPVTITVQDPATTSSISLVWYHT
The experiment in a line: SPR.

B1: Bi-scFv-Fc_02 (full) (antibody)
chain 1: SYVLTQPSSVSVAPGQTATISCGGHNIGSKNVHWYQQRPGQSPVLVIYQDNKRPSGIPERFSGSNSGNTATLTISGTQAMDEADYYCQVWDNYSVLFGGGTKLTVLGGSGGSGGSGGSGGSGGSGGSQVQLVQSGAEVKKPGESLKVSCKASGYTFTSYYMHWVRQAPGQGLEWMGIINPSGGSTSYAQKFQGRVTMTRDTSTSTVYMELSSLRSEDTAVYYCARGSAYYYDFADYWGQGTLVTVSSEPKSCDKTHTCPPCPAPEFEGGPSVFLFPPKPKDTLMISRTPEVTCVVVAVSHEDPEVKFNWYVDGVEVHNAKTKPREEQYNSTYRVVSVLTVLHQDWLNGKEYKCKVSNKALPAPIEKTISKAKGQPREPQVYTLPPSREEMTKNQVSLTCLVKGFYPSDIAVEWESNGQPENNYKTTPPVLDSDGSFFLYSKLTVDKSRWQQGNVFSCSVMHEALHNHYTQKSLSLSPGGGGGSGGGGSQVQLQESGPGLVKPSETLSLTCTVSGGSVSSGSYYWSWIRQPPGKGLEWIGYIYYSGSTNYNPSLKSRVTISVDTSKNQFSLKLSSVTAADTAVYYCARNPISIPAFDIWGQGTMVTVSSGGSGGSGGSGGSGGSGGSQPVLTQPPSVSVAPGKTARITCGGNNIGSKSVHWYQQKPGQAPVLVIYYDSDRPSGIPERFSGSNSGNTATLTISRVEAGDEADYYCQVWDTSSDHVLFGGGTKLTVL
chain 2: SYVLTQPSSVSVAPGQTATISCGGHNIGSKNVHWYQQRPGQSPVLVIYQDNKRPSGIPERFSGSNSGNTATLTISGTQAMDEADYYCQVWDNYSVLFGGGTKLTVLGGSGGSGGSGGSGGSGGSGGSQVQLVQSGAEVKKPGESLKVSCKASGYTFTSYYMHWVRQAPGQGLEWMGIINPSGGSTSYAQKFQGRVTMTRDTSTSTVYMELSSLRSEDTAVYYCARGSAYYYDFADYWGQGTLVTVSSEPKSCDKTHTCPPCPAPEFEGGPSVFLFPPKPKDTLMISRTPEVTCVVVAVSHEDPEVKFNWYVDGVEVHNAKTKPREEQYNSTYRVVSVLTVLHQDWLNGKEYKCKVSNKALPAPIEKTISKAKGQPREPQVYTLPPSREEMTKNQVSLTCLVKGFYPSDIAVEWESNGQPENNYKTTPPVLDSDGSFFLYSKLTVDKSRWQQGNVFSCSVMHEALHNHYTQKSLSLSPGGGGGSGGGGSQVQLQESGPGLVKPSETLSLTCTVSGGSVSSGSYYWSWIRQPPGKGLEWIGYIYYSGSTNYNPSLKSRVTISVDTSKNQFSLKLSSVTAADTAVYYCARNPISIPAFDIWGQGTMVTVSSGGSGGSGGSGGSGGSGGSQPVLTQPPSVSVAPGKTARITCGGNNIGSKSVHWYQQKPGQAPVLVIYYDSDRPSGIPERFSGSNSGNTATLTISRVEAGDEADYYCQVWDTSSDHVLFGGGTKLTVL
B1: the binding result with murine FcγRI, with human FcγRIIa (CD32A), with human FcγRIIb (CD32B), with murine FcγRIV (CD16-2), with human FcγRI (CD64) and with human FcγRIIc (CD32C) was “no binding” in each case. The binding result (with murine FcγRIIb; in [1]; in experiment [2]; with murine FcγRIII) was “no binding” throughout. The Kd was found to be 410 nM with human FcRn, 268 nM with cynomolgus FcRn and 121 nM with murine FcRn.
